The test concerns the target 4-1BB (UniProt Q07011). Put plainly: cell-based or functional assay.

4-1BB, sequence (Q07011 24-255 limits assumed): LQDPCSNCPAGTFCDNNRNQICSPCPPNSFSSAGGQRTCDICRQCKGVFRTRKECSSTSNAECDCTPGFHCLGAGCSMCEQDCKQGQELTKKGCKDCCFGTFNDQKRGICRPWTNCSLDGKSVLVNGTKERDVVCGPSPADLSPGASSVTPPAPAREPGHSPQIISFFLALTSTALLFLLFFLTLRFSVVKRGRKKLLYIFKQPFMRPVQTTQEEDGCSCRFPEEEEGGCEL

As to “4-1BB ligand (from UniProt P41273 1-254)”, the expansion of TRAC-1XX-iT cells from D35 to D42 was 30 fold.

Source of the values: US20250207095A1.
